Bridges are numbered along the chain shown (N, C = ends).

The term Kd denotes the constant that tells how readily two partners part at equilibrium. For orientation: koff means a measure of how fast the partners let go of each other. Lower therefore signals slow dissociation. One may read the kon as the second-order rate constant of association. The low end stands for slower complex formation, the high end for faster complex formation.

One experiment has as its target CD58 (Homo sapiens) (UniProt P19256). As to conditions: cited from earlier work.
Experiment [1] deals with T1, CD58 protein (purified cell-adhesion domain, domain 1) (UniProt P19256 29-215).
T1 sequence (looked up): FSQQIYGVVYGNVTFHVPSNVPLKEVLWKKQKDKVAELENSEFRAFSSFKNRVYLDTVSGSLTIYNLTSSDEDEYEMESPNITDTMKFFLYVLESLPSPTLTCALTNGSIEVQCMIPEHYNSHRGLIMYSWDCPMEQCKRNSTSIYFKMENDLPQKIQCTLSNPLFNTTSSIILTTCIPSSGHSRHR
Description: SPR. (SPR reads the build-up and loss of mass on a sensor chip optically.)

Consider CD2 (from UniProt P06729), for which the equilibrium dissociation constant (Kd) with CD58 (Homo sapiens) is 10 µM.

B1: SFTI-a (peptide)
peptide: cyclo(CKASAPPSCYDGDD)
modifications: disulfide 1-9
SMILES: C[C@@H]1NC(=O)[C@H](CCCCN)NC(=O)[C@@H]2CSSC[C@H](NC(=O)[C@H](CO)NC(=O)[C@@H]3CCCN3C(=O)[C@@H]3CCCN3C(=O)[C@H](C)NC(=O)[C@H](CO)NC1=O)C(=O)N[C@@H](Cc1ccc(O)cc1)C(=O)N[C@@H](CC(=O)O)C(=O)NCC(=O)N[C@@H](CC(=O)O)C(=O)N[C@@H](CC(=O)O)C(=O)N2
In experiment [1], B1 had a dissociation rate constant (koff) of 0.00329 s⁻¹ and an on-rate constant (kon) of 224 M⁻¹ s⁻¹. In experiment [1], cyclo(CTKSIPPICFPDGR) (disulfide 1-9 (inferred)) [sunflower trypsin inhibitor SFTI-1] gave a Kd of more than 500 µM.

The values are drawn from publication PMC5091667 (ACS chemical biology, 2016).
